# According to PMC7266990 (2020):
# B1: A. fumigatus HapX^24–158 bZIP peptide (covering the CBC-binding domain, basic region, and coiled-coil domain) (domain or fragment)
# chain: SPSPGPGTPGSITSKEWVIPPRPKPGRKPATDTPPTKRKAQNRAAQRAFRERRAARVNELEEQIKKIEDEHEIHIAAFKEQITNLSREVEQCRSEMTWWRDRCHALEKEVSVERSAKEAIVKEFRSSLSDREAVR
# Biological target: A. fumigatus wt CBC consisting of the HapB^230–299, HapC^40–137, and HapE^47–164 subunits (Aspergillus fumigatus)
# Assay: SPR
binder,measurement,value
B1,Kd,1.01 nM
